# Data published in patent publication US20100184651A1 (DABUR PHARMA, published 2010).
# T1: VPAC1 receptor (human, UniProt P32241 31-457)
# T1 sequence (looked up): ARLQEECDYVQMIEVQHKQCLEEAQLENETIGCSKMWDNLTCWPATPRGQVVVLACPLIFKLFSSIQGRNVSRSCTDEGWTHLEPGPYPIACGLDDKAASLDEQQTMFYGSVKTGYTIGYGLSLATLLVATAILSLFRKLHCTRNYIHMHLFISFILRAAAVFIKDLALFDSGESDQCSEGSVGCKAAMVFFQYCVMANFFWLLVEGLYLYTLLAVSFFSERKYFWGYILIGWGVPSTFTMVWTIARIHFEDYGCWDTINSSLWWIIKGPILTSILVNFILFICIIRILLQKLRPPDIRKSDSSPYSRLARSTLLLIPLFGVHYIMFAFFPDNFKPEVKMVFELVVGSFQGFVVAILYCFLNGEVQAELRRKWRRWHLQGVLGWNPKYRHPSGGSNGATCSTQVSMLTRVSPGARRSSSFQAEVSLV
# B1: VIP-BH3 BID fusion protein (other)
# chain: MHSDAVFTDNYTRLRKQMAVKKYLNSILNGSSLLIARRMPNFNEDIIRNIARHLAQVGDSMDRLEHHHHHH
# Target: T1, VPAC1 receptor
# Assay: cell-based or functional assay
binder,measurement,value
B1,"IC50, cytotoxicity on A549 cells (MTT assay, 24 h)",~5 µM
same,"IC50, cytotoxicity on HT29 cells (MTT assay, 24 h)",~15 µM
